{"source": "patent US20220025071A1", "key": {"[1]": {"target": "SARS-CoV-2 spike protein, South African Δ3 B.1.351 variant (pseudovirus RVP-724) (SARS-CoV-2) (UniProt P0DTC2)", "assay": "cell-based or functional assay"}, "[2]": {"target": "SARS-CoV-2 spike protein, N439K variant (pseudovirus RVP-703) (SARS-CoV-2) (UniProt P0DTC2)", "assay": "cell-based or functional assay"}}, "note": "“And” between values parts separate entries of the source, which are not always exact repeats. Identical values can stand only once."}
{"substance": "REGN10987 (Imdevimab, biosimilar version) (antibody)", "values": [{"measurement": "EC50 (pM) Neutralization, South Africa B.1.351", "setting": "[1]", "result": "2.48 pM and 2.37 pM"}, {"measurement": "EC50 (pM) Neutralization, N439K", "setting": "[2]", "result": "2260 pM and 2220 pM"}, {"measurement": "fold less potent than REGN10933 in pseudovirus neutralization", "setting": "[2]", "result": 1000, "unit": "fold"}]}
